Test results published in paper PMC10104851, “SynDLP is a dynamin-like protein of Synechocystis sp. PCC 6803 with eukaryotic features” (Nature Communications, 2023).
Positions count from the first letter of the chain named. Names and notes keep the numbering of the source. Blank lines part the entries; values can stand above or below the molecule they belong to.

Columns and labels:
[1] = biological target: SynDLP, the dynamin-like protein of Synechocystis sp. PCC 6803 (Synechocystis sp. PCC 6803); assay: cryo-EM structure; about 3.0 mg/mL SynDLP in 5 mM MgCl2, 7.5 mM KCl, 20 mM HEPES pH 7.4 (no NaCl), no nucleotide, no membrane; segmented single-particle analysis, C2 symmetry; model of 8 monomers
[2] = biological target: SynDLP, the dynamin-like protein of Synechocystis sp. PCC 6803 (Synechocystis sp. PCC 6803)
[3] = biological target: SynDLP_(HPRN-AAAA) (Synechocystis sp. PCC 6803); assay: SEC; analytical SEC, Superose 6 Increase 3.2/300 in reaction buffer (20 mM HEPES pH 7.4, 150 mM NaCl, 7.5 mM KCl, 5 mM MgCl2, 0.2 mM DTT); 30 µl of 10 µM protein; 7 °C; no nucleotide, no membrane
[4] = biological target: SynDLP_(HPRN-AAAA) (Synechocystis sp. PCC 6803)
SynDLP = biological target: T1, SynDLP (Synechocystis sp. PCC 6803, UniProt P73765, K61A); assay: continuous regenerative coupled GTPase assay; format: biochemical; details: P-loop mutant
T1 construct: gene slr0869; full length, C-terminal His tag (pET303-CT/His), E. coli Rosetta-gami 2 (DE3), calculated 93 kDa; oligomer of ~40-50 monomers in solution; model covers aa 1-793, last 19 residues unresolved
T1 sequence (P73765 entry or part of it K61A): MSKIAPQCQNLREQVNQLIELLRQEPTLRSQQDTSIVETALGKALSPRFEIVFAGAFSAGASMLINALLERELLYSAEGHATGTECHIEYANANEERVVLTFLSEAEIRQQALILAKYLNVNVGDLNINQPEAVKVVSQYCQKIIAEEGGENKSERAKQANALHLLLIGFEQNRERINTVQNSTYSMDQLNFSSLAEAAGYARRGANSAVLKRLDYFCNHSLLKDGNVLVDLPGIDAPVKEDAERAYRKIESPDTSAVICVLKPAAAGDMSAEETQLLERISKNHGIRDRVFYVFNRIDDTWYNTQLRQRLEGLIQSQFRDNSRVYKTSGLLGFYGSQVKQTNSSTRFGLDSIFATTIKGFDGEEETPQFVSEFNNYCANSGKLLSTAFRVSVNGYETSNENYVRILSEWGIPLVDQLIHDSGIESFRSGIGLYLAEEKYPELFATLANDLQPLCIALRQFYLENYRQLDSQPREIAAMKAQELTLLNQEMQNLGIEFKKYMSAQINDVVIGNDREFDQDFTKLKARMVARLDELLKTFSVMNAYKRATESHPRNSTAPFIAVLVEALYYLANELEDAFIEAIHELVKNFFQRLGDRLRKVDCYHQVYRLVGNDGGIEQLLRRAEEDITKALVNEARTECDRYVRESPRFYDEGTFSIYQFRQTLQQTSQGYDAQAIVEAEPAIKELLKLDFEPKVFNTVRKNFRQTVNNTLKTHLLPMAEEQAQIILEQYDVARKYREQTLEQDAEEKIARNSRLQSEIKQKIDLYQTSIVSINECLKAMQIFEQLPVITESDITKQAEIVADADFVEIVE

[5] = substrate: Nc1nc2c(ncn2[C@@H]2O[C@H](COP(=O)(O)OP(=O)(O)OP(=O)(O)O)[C@@H](O)[C@H]2O)c(=O)[nH]1; assay: continuous regenerative coupled GTPase assay (PK/LDH, NADH); format: biochemical, Synechocystis sp. PCC 6803; details: 0.5 µM protein, 20 mM HEPES pH 7.4, 150 mM NaCl, 7.5 mM KCl, 5 mM MgCl2, 0.2 mM DTT, 30 °C, no liposomes
Description: continuous regenerative coupled GTPase assay (PK/LDH, NADH) on […]

stoichiometry N [1]: 40 to 50 monomers
kcat of GTP hydrolysis (continuous, regenerative, coupled GTPase assay, 0.5 µM protein) [2]: 0.743 s⁻¹
Molecule: SynDLP, the dynamin-like protein of Synechocystis sp. PCC 6803 (natural protein)

stoichiometry N [3]: 2
kcat of GTP hydrolysis (continuous, regenerative, coupled GTPase assay, 0.5 µM protein) [4]: 0.283 s⁻¹
Molecule: SynDLP_(HPRN-AAAA) (natural protein)

Molecule: Nc1nc2c(ncn2[C@@H]2O[C@H](COP(=O)(O)OP(=O)(O)OP(=O)(O)O)[C@@H](O)[C@H]2O)c(=O)[nH]1 [GTP]
continuous regenerative coupled GTPase assay (SynDLP): A mutation of a conserved residue in the P-loop (K61A) considerably reduced the GTPase activity

B1: SynDLP (Synechocystis sp. PCC 6803 substr. Kazusa) (protein)
chain: MSKIAPQCQNLREQVNQLIELLRQEPTLRSQQDTSIVETALGKALSPRFEIVFAGAFSAGKSMLINALLERELLYSAEGHATGTECHIEYANANEERVVLTFLSEAEIRQQALILAKYLNVNVGDLNINQPEAVKVVSQYCQKIIAEEGGENKSERAKQANALHLLLIGFEQNRERINTVQNSTYSMDQLNFSSLAEAAGYARRGANSAVLKRLDYFCNHSLLKDGNVLVDLPGIDAPVKEDAERAYRKIESPDTSAVICVLKPAAAGDMSAEETQLLERISKNHGIRDRVFYVFNRIDDTWYNTQLRQRLEGLIQSQFRDNSRVYKTSGLLGFYGSQVKQTNSSTRFGLDSIFATTIKGFDGEEETPQFVSEFNNYCANSGKLLSTAFRVSVNGYETSNENYVRILSEWGIPLVDQLIHDSGIESFRSGIGLYLAEEKYPELFATLANDLQPLCIALRQFYLENYRQLDSQPREIAAMKAQELTLLNQEMQNLGIEFKKYMSAQINDVVIGNDREFDQDFTKLKARMVARLDELLKTFSVMNAYKRATESHPRNSTAPFIAVLVEALYYLANELEDAFIEAIHELVKNFFQRLGDRLRKVDCYHQVYRLVGNDGGIEQLLRRAEEDITKALVNEARTECDRYVRESPRFYDEGTFSIYQFRQTLQQTSQGYDAQAIVEAEPAIKELLKLDFEPKVFNTVRKNFRQTVNNTLKTHLLPMAEEQAQIILEQYDVARKYREQTLEQDAEEKIARNSRLQSEIKQKIDLYQTSIVSINECLKAMQIFEQLPVITESDITKQAEIVADADFVEIVE
notes: full length, C-terminal His tag (pET303-CT/His), E. coli Rosetta-gami 2 (DE3), calculated 93 kDa; oligomer of ~40-50 monomers in solution; model covers aa 1-793, last 19 residues unresolved
Km [5]: 500 ± 40 µM
kcat [5]: 0.743 ± 0.0167 s⁻¹

B2: SynDLP (Synechocystis sp. PCC 6803 substr. Kazusa; C777A) (protein)
chain: B1 chain with C777A
notes: as for B1
Km [5]: 350 ± 40 µM
kcat [5]: 0.462 ± 0.0133 s⁻¹

B3: SynDLP (Synechocystis sp. PCC 6803 substr. Kazusa; H552A/N555A/P553A/R554A) (protein)
chain: B1 chain with H552A, P553A, R554A, N555A
notes: as for B1
Km [5]: 330 ± 20 µM
kcat [5]: 0.283 ± 0.00333 s⁻¹
